Legend:
[1] = molecular target: T1, hnRNP A1 (UniProt P09651 1-372); assay: SPR imaging; 1:2 biphasic fit, primary Kd; fitted maximum higher than SMN1 (1260 vs 885); SPRi (IBIS MX-96): 10 mM HEPES/KOH pH 7.9, 150 mM KCl, 10 mM MgCl2, 0.075% Tween-80; 6.25-400 nM protein over immobilized biotinylated RNA; 20 mg/ml BSA block; conditions: protein: commercial; label: 3' biotin
[2] = molecular target: T2, SRSF1 (UniProt Q07955 1-248); assay: SPR imaging; SPRi (IBIS MX-96): 10 mM HEPES/KOH pH 7.9, 150 mM KCl, 10 mM MgCl2, 0.075% Tween-80; 6.25-400 nM protein over immobilized biotinylated RNA; 20 mg/ml BSA block; conditions: protein: recombinant; label: 3' biotin
[3] = molecular target: TDP-43 (UniProt Q13148 1-414); assay: SPR imaging; pronounced increase vs wt; SPRi (IBIS MX-96): 10 mM HEPES/KOH pH 7.9, 150 mM KCl, 10 mM MgCl2, 0.075% Tween-80; 6.25-400 nM protein over immobilized biotinylated RNA; 20 mg/ml BSA block; conditions: protein: commercial; label: 3' biotin
[4] = molecular target: T1, hnRNP A1; assay: SPR imaging; 1:2 biphasic fit, primary Kd; SPRi (IBIS MX-96): 10 mM HEPES/KOH pH 7.9, 150 mM KCl, 10 mM MgCl2, 0.075% Tween-80; 6.25-400 nM protein over immobilized biotinylated RNA; 20 mg/ml BSA block; conditions: protein: commercial; label: 3' biotin
[5] = molecular target: T1, hnRNP A1; assay: SPR imaging; 1:2 biphasic fit, primary Kd; low Rmax 68.35; SPRi (IBIS MX-96): 10 mM HEPES/KOH pH 7.9, 150 mM KCl, 10 mM MgCl2, 0.075% Tween-80; 6.25-400 nM protein over immobilized biotinylated RNA; 20 mg/ml BSA block; conditions: protein: commercial; label: 3' biotin
[6] = molecular target: T2, SRSF1; assay: SPR imaging; Kd NA, Rmax 0, maximum 0; SPRi (IBIS MX-96): 10 mM HEPES/KOH pH 7.9, 150 mM KCl, 10 mM MgCl2, 0.075% Tween-80; 6.25-400 nM protein over immobilized biotinylated RNA; 20 mg/ml BSA block; conditions: protein: recombinant; label: 3' biotin
[7] = molecular target: T1, hnRNP A1; assay: SPR imaging; 1:2 biphasic fit, primary Kd; fitted maximum higher than WT (60.5 vs 49.6); SPRi (IBIS MX-96): 10 mM HEPES/KOH pH 7.9, 150 mM KCl, 10 mM MgCl2, 0.075% Tween-80; 6.25-400 nM protein over immobilized biotinylated RNA; 20 mg/ml BSA block; conditions: protein: commercial; label: 3' biotin
[8] = molecular target: T1, hnRNP A1; assay: SPR imaging; 1:2 biphasic fit, primary Kd; low Rmax 58.75; SPRi (IBIS MX-96): 10 mM HEPES/KOH pH 7.9, 150 mM KCl, 10 mM MgCl2, 0.075% Tween-80; 6.25-400 nM protein over immobilized biotinylated RNA; 20 mg/ml BSA block; conditions: protein: commercial; label: 3' biotin
[9] = molecular target: T1, hnRNP A1; assay: SPR imaging; 1:2 biphasic fit, primary Kd; text: increased binding vs WT (maximum 718 vs 131); SPRi (IBIS MX-96): 10 mM HEPES/KOH pH 7.9, 150 mM KCl, 10 mM MgCl2, 0.075% Tween-80; 6.25-400 nM protein over immobilized biotinylated RNA; 20 mg/ml BSA block; conditions: protein: commercial; label: 3' biotin

T1 sequence (P09651 whole entry): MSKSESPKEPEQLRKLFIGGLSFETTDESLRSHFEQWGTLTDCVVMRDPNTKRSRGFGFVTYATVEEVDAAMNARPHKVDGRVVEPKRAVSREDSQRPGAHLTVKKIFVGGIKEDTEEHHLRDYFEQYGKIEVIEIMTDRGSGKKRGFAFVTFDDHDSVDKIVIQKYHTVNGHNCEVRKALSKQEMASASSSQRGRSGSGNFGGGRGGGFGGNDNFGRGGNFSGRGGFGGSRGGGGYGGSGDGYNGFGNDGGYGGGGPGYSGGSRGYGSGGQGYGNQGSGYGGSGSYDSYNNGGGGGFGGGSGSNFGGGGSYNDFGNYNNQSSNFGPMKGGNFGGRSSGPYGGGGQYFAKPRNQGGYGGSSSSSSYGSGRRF
T2 sequence (Q07955 whole entry): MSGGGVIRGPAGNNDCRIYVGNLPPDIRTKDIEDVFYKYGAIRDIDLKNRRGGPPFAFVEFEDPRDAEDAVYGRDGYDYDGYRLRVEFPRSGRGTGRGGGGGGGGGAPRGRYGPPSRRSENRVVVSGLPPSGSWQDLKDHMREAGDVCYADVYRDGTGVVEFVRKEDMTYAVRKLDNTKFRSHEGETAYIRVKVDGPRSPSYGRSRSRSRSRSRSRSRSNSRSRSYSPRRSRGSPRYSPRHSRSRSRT
Chain of TDP-43 (Q13148 whole entry): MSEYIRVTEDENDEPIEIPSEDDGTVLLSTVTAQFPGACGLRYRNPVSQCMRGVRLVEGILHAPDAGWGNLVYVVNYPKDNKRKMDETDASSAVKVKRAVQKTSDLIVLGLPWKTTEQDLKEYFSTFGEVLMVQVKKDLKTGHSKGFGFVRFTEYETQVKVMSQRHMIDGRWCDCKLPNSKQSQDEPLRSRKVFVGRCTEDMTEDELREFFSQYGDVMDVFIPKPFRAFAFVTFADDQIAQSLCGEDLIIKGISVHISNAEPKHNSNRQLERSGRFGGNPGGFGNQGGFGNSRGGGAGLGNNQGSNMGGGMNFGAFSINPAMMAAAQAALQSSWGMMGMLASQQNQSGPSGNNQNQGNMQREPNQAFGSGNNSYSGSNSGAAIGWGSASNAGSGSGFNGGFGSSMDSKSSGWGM

| Binder | Kd [2] [nM] | Kd [4] [nM] | further results |
| --- | --- | --- | --- |
| AGGGUUUUAGACAAA (ssRNA) [SMN2E7T] | 249000 | – | Kd [1]: 1040 nM |
| UGAUGUGUGUGAGUGUGUGUAAC (ssRNA) [ACADM exon 6 5'ss +7A>G 23 nt] | – | – | binding result [3]: binds |
| AUUUUUGUAAGAGUG (ssRNA) [NF1EX30 MUT] | 248000 | 1080 | – |
| CAUUCUUUGACUAGC (ssRNA) [MLH1EX17 MUT] | – | – | Kd [5]: 118 nM; binding result [6]: no binding |
| UCCCAGUCAGAGGCG (ssRNA) [PTENEX6 WT] | 5800 | 1160 | – |
| UGACCUCAAAACAGC (ssRNA) [ATMEX44 MUT] | 10500 | – | Kd [7]: 211000 nM |
| AGGGUUUCAGACAAA (ssRNA) [SMN1E7C] | 302 | 733 | – |
| UGACCUCGAAACAGC (ssRNA) [ATMEX44 WT] | 60900 | 3890 | – |
| GGGAGAUGGAAUCAA (ssRNA) [ATP7AEX20 WT] | 913 | 886 | – |
| AUUUUUGGAAGAGUG (ssRNA) [NF1EX30 WT] | 168 | 632 | – |
| CAUUCUUCGACUAGC (ssRNA) [MLH1EX17 WT] | – | – | Kd [8]: 32 nM; binding result [6]: no binding |
| GGGAGAUAGAAUCAA (ssRNA) [ATP7AEX20 MUT] | 5090 | – | Kd [9]: 989 nM |
| UCCCAGUUAGAGGCG (ssRNA) [PTENEX6 MUT] | 161000 | 1450 | – |

Source: paper PMC7367176, “Grønning Alexander Gulliver Bjørnholt Department of Biochemistry and Molecular Biology, University of Southern Denmark, 5230 Odense M, Denmark”
